Measurements: patent US20240100176A1 (Eli Lilly, published 2024)

B1: anti-human IL-4Rα antibody Ab1 (antibody, human IgG4 S228P, kappa)
heavy: QVQLVESGGGLVQPGGSLRLSCVASGFTFSHSSMNWVRQAPGKGLEWVSYISRATGAVYYADSVKGRFTISRDNAKNSLYLQMNSLRDEDTAVYYCAREPVFDYWGQGTLVTVSSASTKGPCVFPLAPCSRSTSESTAALGCLVKDYFPEPVTVSWNSGALTSGVHTFPAVLQSSGLYSLSSVVTVPSSSLGTKTYTCNVDHKPSNTKVDKRVESKYGPPCPPCPAPEFLGGPSVFLFPPKPKDTLMISRTPEVTCVVVDVSQEDPEVKFNWYVDGVEVHNAKTKPREEQFNSTYRVVSVLTVLHQDWLNGKEYKCKVSNKGLPSSIEKTISKAKGQPREPQVYTLPPSREEMTKNQVSLTCLVKGFYPSDICVEWESNGQPENNYKTTPPVLDSDGSFFLYSRLTVDKSRWQQGNVFSCSVMHEALHNHYTQKSLSLSLG
light: DIQMTQSPSAMSASVGDRVTITCRASQDISNYLAWFQQKPGKVPTRLIYAASSLQSGVPSRFSGSGSGTEFTLTISSLQPEDFATYYCLQWSSYPRTFGQGTKVEIKRTVAAPSVFIFPPSDEQLKSGTASVVCLLNNFYPREAKVQWKVDNALQSGNSQESVTEQDSKDSTYSLSSTLTLSKADYEKHKVYACEVTHQGLSSPVTKSFNRGEC
notes: human kappa light chain; also called anti-human IL-4Rα Ab1; unconjugated Ab1
B2: anti-human IL-4Rα Ab1 GC conjugate of Example 1b (n=4) (antibody, human IgG4 S228P, kappa)
heavy: B1 heavy
light: B1 light
modifications: glucocorticoid receptor agonist payload-linker (GC-L, Preparation 8) conjugated to the engineered cysteines at the 124 and 378 position of the heavy chain (EU numbering); n is 4 (average DAR 4.17 by RP-HPLC, 3.85 by TOF MS)

How the values were obtained:
[1] = target: T1, hexahistidine tagged human IL-4Rα ECD K2D (human, UniProt P24394 26-232); assay: capture ELISA: Ab1 on anti-human IgG Fc, His-tagged receptor at 0.04 µg/mL, anti-His HRP
T1 construct: not shown: hexahistidine tag
T1 sequence (P24394 other isoform, or with tags, fused parts or gaps): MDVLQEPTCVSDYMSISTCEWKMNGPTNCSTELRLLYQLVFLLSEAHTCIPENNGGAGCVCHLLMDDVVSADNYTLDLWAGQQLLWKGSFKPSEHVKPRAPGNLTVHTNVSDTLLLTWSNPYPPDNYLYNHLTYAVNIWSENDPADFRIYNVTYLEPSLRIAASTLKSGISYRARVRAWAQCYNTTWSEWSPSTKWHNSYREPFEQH
Text: (§1) Example 2d. […] Briefly, thirty surface amino acid residue substitutions were introduced individually into hexahistidine tagged human IL-4Rα extra cellular domain (ECD) as follows: K2D, E6R, K22D, P26R, T31R, F41A, L42G, L43G, E45R, E52R, G56R, D66R, A71R, Q82G, K87D, E94R, H107A, D108R, P124R, D125R, D143R, R148D, L155R, R160D, S164R, S168R, Q181R, P192R, K195D, or H197G. Each mutant protein having a single amino acid residue substitution as described above was transiently expressed in CHO cells and purified using standard immobilized metal affinity chromatography techniques. […] The plates were then washed 3 times with PBST and the exemplified human IL-4Rα antibody was added to the wells at a final concentration of 1 μg/mL in PBS-casein and incubated for 1 hour at room temperature. The plates were washed 3 times with PBST, the IL-4Rα mutant proteins were serially diluted 5-fold from 1 μg/mL for 3 points. in PBS-casein and added to the plate at 50 μL/well and incubated for 1 hour at room temperature. The plates were washed 3 times with PBST and a 1000-fold dilution of anti-histidine tag antibody HRP conjugate (R&D Systems, Cat. #MAB050H) in PBS-casein was added and incubated for 45 minutes at room temperature. The plates were washed 3 times, TMB substrate (Pierce, Cat. #34028) was added per manufacturer instructions, the reaction was quenched with H₂SO₄, and absorbance was read at 450 nm on an ELISA plate reader.

[2] = target: T2, hexahistidine tagged human IL-4Rα ECD R160D (human, UniProt P24394 26-232); assay: as above
T2 construct: not shown: hexahistidine tag
T2 sequence (P24394 26-232 R185D): as the sequence (P24394 other isoform, or with tags, fused parts or gaps) above, with D2K, R160D counted along it
Text: as §1

[3] = target: T3, hexahistidine tagged human IL-4Rα ECD K22D (human, UniProt P24394 26-232); assay: as above
T3 construct: not shown: hexahistidine tag
T3 sequence (P24394 26-232 K47D): as the sequence (P24394 other isoform, or with tags, fused parts or gaps) above, with D2K, K22D counted along it
Text: as §1

[4] = target: T4, hexahistidine tagged human IL-4Rα ECD G56R (human, UniProt P24394 26-232); assay: as above
T4 construct: not shown: hexahistidine tag
Text: as §1

[5] = target: T5, hexahistidine tagged human IL-4Rα ECD L43G (human, UniProt P24394 26-232); assay: as above
T5 construct: not shown: hexahistidine tag
Text: as §1

[6] = target: T6, hexahistidine tagged human IL-4Rα ECD Q82G (human, UniProt P24394 26-232); assay: as above
T6 construct: not shown: hexahistidine tag
Text: as §1

[7] = target: T7, hexahistidine tagged human IL-4Rα ECD H107A (human, UniProt P24394 26-232); assay: as above
T7 construct: not shown: hexahistidine tag
T7 sequence (P24394 26-232 H132A): as the sequence (P24394 other isoform, or with tags, fused parts or gaps) above, with D2K, H107A counted along it
Text: as §1

[8] = target: T8, hexahistidine tagged human IL-4Rα ECD D143R (human, UniProt P24394 26-232); assay: as above
T8 construct: not shown: hexahistidine tag
T8 sequence (P24394 26-232 D168R): as the sequence (P24394 other isoform, or with tags, fused parts or gaps) above, with D2K, D143R counted along it
Text: as §1

[9] = target: T9, hexahistidine tagged human IL-4Rα ECD L155R (human, UniProt P24394 26-232); assay: as above
T9 construct: not shown: hexahistidine tag
T9 sequence (P24394 26-232 L180R): as the sequence (P24394 other isoform, or with tags, fused parts or gaps) above, with D2K, L155R counted along it
Text: as §1

[10] = target: T10, hexahistidine tagged human IL-4Rα ECD E52R (human, UniProt P24394 26-232); assay: as above
T10 construct: not shown: hexahistidine tag
Text: as §1

[11] = target: T11, human FcγRI (CD64) extracellular domain (human, UniProt P12314 16-292); assay: SPR (Biacore), antibody captured on protein A, FcγR ECD as analyte, 25 °C
T11 construct: extracellular domain
T11 sequence (P12314 16-292): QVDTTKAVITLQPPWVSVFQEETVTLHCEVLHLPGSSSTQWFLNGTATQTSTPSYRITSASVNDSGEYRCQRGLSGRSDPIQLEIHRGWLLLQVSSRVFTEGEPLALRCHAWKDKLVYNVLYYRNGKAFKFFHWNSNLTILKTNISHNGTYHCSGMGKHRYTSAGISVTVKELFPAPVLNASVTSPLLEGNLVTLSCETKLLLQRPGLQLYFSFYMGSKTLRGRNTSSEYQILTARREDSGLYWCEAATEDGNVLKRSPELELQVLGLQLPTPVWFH
Description: Unreacted sites were blocked with a 7 minute injection of ethanolamine at 10 μL/minute. Injections of 2×10 μL of glycine, pH 1.5, was used to remove any noncovalently associated protein. Running buffer was 1×HBS-EP+(TEKNOVA, P/N H8022). The FcγR extracellular domains (ECDs)-FcγRI (CD64), FcγRIIA_131R, and FcγRIIA_131H (CD32a), FcγRIIIA_158V, FcγRIIIA_158F (CD16a), and FcγRIIb (CD32b) were produced from stable CHO cell expression and purified using IgG Sepharose and size exclusion chromatography. For FcγRI binding, antibodies were diluted to […] in running buffer, and approximately 150 RU of each antibody was captured in FCs 2 through 4 (RU captured). FC1 was the reference FC, therefore no antibody was captured in FC1. […] Duplicate injections of each concentration were injected over all FCs at 40 μL/minute for 120 seconds followed by a 1200 second dissociation phase. Regeneration was performed by injecting 15 μL of 10 mM glycine, pH 1.5, at 30 μL/minute over all FCs. […] The affinity (KD) was calculated using either steady state equilibrium analysis with the Scrubber 2 Biacore Evaluation Software or a “1:1 (Langmuir) binding” model in BIA Evaluation. […] The affinity (KD) was calculated using the steady state equilibrium analysis with the Scrubber 2 Biacore Evaluation Software. […]

| Binder | ELISA (OD450) [1] [OD450] | ELISA (OD450) [2] [OD450] | ELISA (OD450) [3] [OD450] | ELISA (OD450) [4] [OD450] | ELISA (OD450) [5] [OD450] | ELISA (OD450) [6] [OD450] | ELISA (OD450) [7] [OD450] | ELISA (OD450) [8] [OD450] | ELISA (OD450) [9] [OD450] | ELISA (OD450) [10] [OD450] | Kd [11] [nM] |
| --- | --- | --- | --- | --- | --- | --- | --- | --- | --- | --- | --- |
| B1 | 1.09 | 1.2 | 0.593 | 1.17 | 1.35 | 1.1 | 1.42 | 1.27 | 1.14 | 1.1 | – |
| B2 | – | – | – | – | – | – | – | – | – | – | 0.64 |
